Measurements as given in patent US20240116985A1 (published 2024).
Values belong to the binder of their own block, whether it stands above or below them. Starred links: 1 amine or outer side, 2 acyl side, 3 side chain; linkers in the order of their positions; H or OH if unused. Positions of bridges follow the written chain, without caps; N, C: chain ends. Non-standard residues stand in square brackets, D forms with d. Primed or numbered codes have the meaning given here. B5(10) = 2-amino-2-(pent-4-en-1-yl)hept-6-enoic acid, bis(4-pentenyl)glycine, stitching residue bearing both staples, C=CCCCC(CCCC=C)(N[*:1])C(=O)[*:2]; PyrS2(3) = (S)-3-amino-1-((pent-4-en-1-yloxy)carbonyl)pyrrolidine-3-carboxylic acid, stapling residue, C=CCCCOC(=O)N1CC[C@@](N[*:1])(C(=O)[*:2])C1; PyrS2″ = (S)-3-amino-1-((pent-4-en-1-yloxy)carbonyl)pyrrolidine-3-carboxylic acid (stapling residue), C=CCCCOC(=O)N1CC[C@@](N[*:1])(C(=O)[*:2])C1; B5(16) = 2-amino-2-(pent-4-en-1-yl)hept-6-enoic acid = 2,2-bis(4-pentenyl)glycine (stitching residue), C=CCCCC(CCCC=C)(N[*:1])C(=O)[*:2]; B5(4) = 2,2-bis(4-pentenyl)glycine = 2-amino-2-(pent-4-en-1-yl)hept-6-enoic acid (stitching residue), C=CCCCC(CCCC=C)(N[*:1])C(=O)[*:2]; TfeGA = (S)-2-amino-3-((carboxymethyl)(2,2,2-trifluoroethyl)amino)propanoic acid, O=C([C@H](CN(CC(=O)[*:3])CC(F)(F)F)N[*:1])[*:2]; PyrS2 = (S)-3-amino-1-((pent-4-en-1-yloxy)carbonyl)pyrrolidine-3-carboxylic acid, C=CCCCOC(=O)N1CC[C@@](N[*:1])(C(=O)[*:2])C1; PyrS2(5) = (S)-3-amino-1-((alkenyloxy)carbonyl)pyrrolidine-3-carboxylic acid, carbamate stapling residue; B5(3) = 2,2-bis(4-pentenyl)glycine (stitching residue), C=CCCCC(CCCC=C)(N[*:1])C(=O)[*:2]; B5″ = 2,2-bis(4-pentenyl)glycine, stitching residue, C=CCCCC(CCCC=C)(N[*:1])C(=O)[*:2]; Phe(3-COOH) = N[C@@H](Cc1cccc(C(=O)O)c1)C(=O)O; Phe(2-CF3) = N[C@@H](Cc1ccccc1C(F)(F)F)C(=O)O; Phe(2-Cl) = N[C@@H](Cc1ccccc1Cl)C(=O)O; Bta = N[C@@H](Cc1csc2ccccc12)C(=O)O; αAllylPro = C=CC[C@@]1(C(=O)O)CCCN1; tBuAla = CC(C)(C)C[C@H](N)C(=O)O; 3Thi = N[C@@H](Cc1ccsc1)C(=O)O; S8 = C=CCCCCCC[C@](C)(N)C(=O)O; R5 = C=CCCC[C@@](C)(N)C(=O)O; PyrS2(4) = not defined here; hSer = N[C@@H](CCO)C(=O)O; Nle = CCCC[C@H](N)C(=O)O; Aib = CC(C)(N)C(=O)O

Key:
[1] = target: T1, beta-catenin in DLD1 TCF/LEF luciferase reporter cells (UniProt P35222 1-781); experiment: cell-based or functional assay
T1 sequence (looked up): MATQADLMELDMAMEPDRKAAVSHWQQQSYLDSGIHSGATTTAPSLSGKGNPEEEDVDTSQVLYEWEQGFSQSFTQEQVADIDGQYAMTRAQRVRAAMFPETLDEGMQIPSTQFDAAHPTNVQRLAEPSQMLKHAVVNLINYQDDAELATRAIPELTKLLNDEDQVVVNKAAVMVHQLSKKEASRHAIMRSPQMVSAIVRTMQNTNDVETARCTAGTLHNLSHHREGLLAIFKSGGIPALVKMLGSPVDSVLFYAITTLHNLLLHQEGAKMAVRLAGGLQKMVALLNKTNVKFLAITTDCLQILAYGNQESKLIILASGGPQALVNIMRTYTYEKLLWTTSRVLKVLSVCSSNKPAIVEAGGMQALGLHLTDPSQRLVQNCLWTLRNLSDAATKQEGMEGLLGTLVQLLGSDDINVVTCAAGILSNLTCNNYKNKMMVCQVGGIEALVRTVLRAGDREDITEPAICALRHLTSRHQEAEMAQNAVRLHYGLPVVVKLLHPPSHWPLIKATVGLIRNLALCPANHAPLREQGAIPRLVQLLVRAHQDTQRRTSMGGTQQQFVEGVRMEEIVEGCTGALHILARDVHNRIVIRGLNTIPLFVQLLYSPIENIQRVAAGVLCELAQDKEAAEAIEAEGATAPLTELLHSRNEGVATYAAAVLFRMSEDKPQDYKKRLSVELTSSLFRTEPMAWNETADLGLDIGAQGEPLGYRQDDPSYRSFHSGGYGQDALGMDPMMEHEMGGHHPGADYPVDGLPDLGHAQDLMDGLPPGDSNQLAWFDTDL

[2] = target: T2, full-length beta-Catenin (Uniprot ID P35222) (Homo sapiens (Human), UniProt P35222 2-781); experiment: fluorescence polarization competition, displacement of 5FAM-TCF4 10-53 from full-length beta-catenin
T2 construct: also called bCat; B-Catenin
T2 sequence: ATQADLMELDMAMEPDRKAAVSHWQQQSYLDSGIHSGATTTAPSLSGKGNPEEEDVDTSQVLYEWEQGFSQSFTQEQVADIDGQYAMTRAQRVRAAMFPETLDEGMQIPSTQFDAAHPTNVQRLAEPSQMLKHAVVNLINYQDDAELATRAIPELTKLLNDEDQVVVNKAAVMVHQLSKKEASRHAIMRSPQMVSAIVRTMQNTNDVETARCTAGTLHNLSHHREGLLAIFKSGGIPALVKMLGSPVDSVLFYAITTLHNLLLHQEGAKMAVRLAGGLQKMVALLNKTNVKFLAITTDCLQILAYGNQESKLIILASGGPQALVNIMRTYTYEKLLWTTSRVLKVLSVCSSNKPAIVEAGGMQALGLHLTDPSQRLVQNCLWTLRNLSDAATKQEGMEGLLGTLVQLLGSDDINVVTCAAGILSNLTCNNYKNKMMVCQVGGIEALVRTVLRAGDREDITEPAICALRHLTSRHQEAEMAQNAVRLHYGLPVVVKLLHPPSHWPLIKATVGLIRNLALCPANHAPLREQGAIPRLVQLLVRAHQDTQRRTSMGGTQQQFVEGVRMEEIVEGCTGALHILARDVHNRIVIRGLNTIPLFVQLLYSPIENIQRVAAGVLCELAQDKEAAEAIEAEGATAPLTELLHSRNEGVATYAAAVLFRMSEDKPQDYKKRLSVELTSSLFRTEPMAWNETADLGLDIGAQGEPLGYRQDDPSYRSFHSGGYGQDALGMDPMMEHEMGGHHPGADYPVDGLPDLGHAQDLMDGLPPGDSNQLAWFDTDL
Description: (§1) The plate was incubated protected from light for 60 minutes at 20° C. prior to read. Reads were performed on a CLARIOstar plate reader (BMG Labtech) in duplicate, and data were fitted to a 1:1 binding model with hill slope using an in-house script. All provided concentrations are final concentrations.

B-cat-Halo [3] = target: T3, B-cat-Halo (UniProt P35222 1-781); experiment: cell-based or functional assay
T3 sequence (looked up): T1 sequence (looked up)

[4] = target: T4, beta-catenin in DLD1 TCF/LEF luciferase reporter cells (UniProt P35222 1-781); experiment: cell-based or functional assay; remark: listed apart in the source
T4 sequence (looked up): T1 sequence (looked up)

[5] = target: T5, B-cat-Halo (beta-catenin HaloTag construct transfected into HEK293 cells) (UniProt P35222 1-781); experiment: cell-based or functional assay
T5 sequence (looked up): T1 sequence (looked up)

[6] = target: T6, beta-catenin in DLD1 TCF/LEF luciferase reporter cells (UniProt P35222 1-781); experiment: cell-based or functional assay; remark: listed apart in the source
T6 sequence (looked up): T1 sequence (looked up)

[7] = target: T7, full-length beta-Catenin (Uniprot ID P35222) (Homo sapiens (Human), UniProt P35222 1-781); experiment: fluorescence polarization competition against 5FAM-TCF4(10-53) on full-length beta-catenin
T7 construct: also called bCat
T7 sequence: T1 sequence (looked up)
Description: as §1

B-cat-Halo [8] = target: T8, B-cat-Halo (UniProt P35222 1-781); experiment: cell-based or functional assay; remark: listed apart in the source
T8 sequence (looked up): T1 sequence (looked up)

Bcat-Halo = target: T9, Bcat-Halo (UniProt P35222 1-781); experiment: NanoBRET in HEK293 cells, Bcat-Halo/TCF4-Luc (competitor TCF4-Luc); absolute IC50
T9 construct: Construct transfected into HEK293 cells for NanoBRET; not shown: HaloTag fusion partner
T9 sequence (looked up): T1 sequence (looked up)

[9] = target: T10, full-length beta-Catenin (Uniprot ID P35222) (Homo sapiens (Human), UniProt P35222 2-781); experiment: fluorescence polarization competition; full-length beta-catenin, competitor 5FAM-TCF4(10-53) probe
T10 construct: Also used here for the endogenous beta-catenin of the DLD1 TCF reporter cells; also called bCat; B-Catenin
T10 sequence: T2 sequence
How it was run: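 Readings followed a light-protected 60-minute incubation at 20° C. Each read was done in duplicate. Curves were fit with a 1:1 binding model including hill slope, and stated concentrations are final.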

B-cat-Halo [10] = target: T11, B-cat-Halo (UniProt P35222 1-781); experiment: cell-based or functional assay; remark: listed apart in the source
T11 sequence (looked up): T1 sequence (looked up)

[11] = target: T12, beta-catenin in DLD1 TCF/LEF luciferase reporter cells (UniProt P35222 1-781); experiment: cell-based or functional assay; remark: listed apart in the source
T12 sequence (looked up): T1 sequence (looked up)

B1: I-1183 (peptide)
peptide: Ac-PD[tBuAla][R5]DDAAFN[PyrS2(3)][Phe(2-Cl)][Bta]Q-NH2
modifications: staple 4-11
notes: Stapled peptide, one staple. '2C1F' as printed (2ClF)
- IC50 [2]: 409 nM

Binder: Ac-[αAllylPro]D[tBuAla][B5(3)]D[TfeGA]AAF[hSer][PyrS2″][Phe(2-Cl)][Bta][hSer]-NH2 (staple 1-4, 4-11) [I-993]
- NanoBRET Abs IC50 (B-cat-Halo [3]): 4.9 µM
- DLD1 4% Abs IC50 [4]: 1.8 µM

B3: I-1286 (peptide)
peptide: Ac-[αAllylPro]NA[B5(10)]DTAAFL[PyrS2]F[Bta]Q-NH2
modifications: staple 1-4, 4-11; not fully specified; printed as Ac-PL3-Asn-Ala-B5-Asp-Thr-Ala-Ala-Phe-Leu-PyrS2-Phe-BztA-Gln-NH2
notes: Stapled peptide
- IC50 [7]: 10 µM

Binder: Ac-[αAllylPro]D[tBuAla][B5″]D[TfeGA]AAFN[PyrS2(3)][3Thi][Bta]Q-NH2 (staple 1-4, 4-11) [I-761]
- NanoBRET IC50 (B-cat-Halo [8]): 5 µM

Binder: Ac-[αAllylPro]DL[B5(4)]DEAAFN[S8]F[Bta]N-NH2 (staple 1-4, 4-11; also: olefin E/Z not assigned, earlier-eluting staple isomer, Stapled peptide composition) [I-752]
- IC50 (Bcat-Halo): 9.9 µM
- EC50 [9]: 16 nM

Binder: Ac-[αAllylPro]DL[B5(4)]DEAAFN[S8]F[Bta]N-NH2 (staple 1-4, 4-11; also: olefin E/Z not assigned, later-eluting staple isomer, Stapled peptide composition) [I-753]
- IC50 (Bcat-Halo): 10 µM
- EC50 [9]: 14 nM

The remaining lines, values ahead:

- DLD1 4% Abs IC50 [1]: 1.3 µM
Binder: Ac-[αAllylPro]D[tBuAla][B5(16)]D[Phe(3-COOH)][Nle]AFL[PyrS2(5)][Phe(2-Cl)][Bta]Q-NH2 (staple 1-4, 4-11) [I-1685]

- NanoBRET Abs IC50 [5]: 3.1 µM
- DLD1 4% Abs IC50 [6]: 1.2 µM
B2: I-1920 (peptide)
peptide: Ac-[αAllylPro]D[tBuAla][B5(4)]D[Phe(3-COOH)][Aib]AFL[PyrS2(4)][3Thi][Bta]A-NH2
modifications: staple 1-4, 4-11; not fully specified; printed as Ac-PL3-Asp-Npg-B5-Asp-3COOHF-Aib-Ala-Phe-Leu-PyrS2-3Thi-BztA-Ala-NH2; reading uncertain

- NanoBRET Abs IC50 (B-cat-Halo [10]): 4.2 µM
- DLD1 4% Abs IC50 [11]: 2.1 µM
Binder: Ac-[αAllylPro]D[tBuAla][B5(4)]DDAAFF[PyrS2″][Phe(2-CF3)][Bta]Q-NH2 (staple 1-4, 4-11) [I-1319]
